Reference: publication PMC6365017 (Journal of molecular biology, 2018)
Values belong to the molecule of their own block, whether it stands above or below them.

Key:
[1] = molecular target: T1, ZmALDH12 (Zea mays, UniProt A0A2H4PMI3); assay: microscale thermophoresis; format: binding
[2] = molecular target: ZmALDH12 (Zea mays, UniProt A0A2H4PMI3, C330A); assay: microscale thermophoresis; format: binding
[3] = molecular target: T1, ZmALDH12; assay: microscale thermophoresis, label-free; format: binding
[4] = substrate: N[C@@H](CCCC=O)C(=O)O; assay: NADH formation, spectrophotometry/fluorescence; format: biochemical, Zea mays; details: 3.0 mM NAD+, 100 mM pyrophosphate pH 7.5, 30 °C
[5] = substrate: O=C[C@H](O)COP(=O)(O)O; assay: NADH formation, spectrophotometry/fluorescence; format: biochemical, Zea mays; details: 3.0 mM NAD+, 100 mM pyrophosphate pH 7.5, 30 °C
[6] = substrate: NC(CCC=O)C(=O)O; assay: NADH formation, spectrophotometry/fluorescence; format: biochemical, Zea mays; details: 3.0 mM NAD+, 100 mM pyrophosphate pH 7.5, 30 °C
[7] = substrate: NC(CCC=O)C(=O)O; assay: NADH formation, spectrophotometry/fluorescence; format: biochemical, Physcomitrium patens; details: 3.0 mM NAD+, 100 mM pyrophosphate pH 7.5, 30 °C
[8] = substrate: N[C@@H](CCCC=O)C(=O)O; assay: NADH formation, spectrophotometry/fluorescence; format: biochemical, Physcomitrium patens; details: 3.0 mM NAD+, 100 mM pyrophosphate pH 7.5, 30 °C
[9] = substrate: O=CCCCC(=O)O; assay: NADH formation, spectrophotometry/fluorescence; format: biochemical, Physcomitrium patens; details: 3.0 mM NAD+, 100 mM pyrophosphate pH 7.5, 30 °C

B1: ZmALDH12 (Zea mays) (protein)
chain: APFACVSRWLHTPSFATVSPQEVSGSSPAEVQNFVQGSWTASANWNWIVDPLNGDKFIKVAEVQGTEIKSFMESLSKCPKHGLHNPLKAPERYLMYGDISAKAAHMLGQPTVLDFFAKLIQRVSPKSYQQALAEVQVSQKFLENFCGDQVRFLARSFAVPGNHLGQRSNGYRWPYGPVAIITPFNFPLEIPLLQLMGALYMGNKPVLKVDSKVSIVMEQMIRLLHDCGLPAEDMDFINSDGAVMNKLLLEANPKMTLFTGSSRVAEKLAADLKGRVKLEDAGFDWKILGPDVQEVDYVAWVCDQDAYACSGQKCSAQSVLFMHKNWSSSGLLEKMKKLSERRKLEDLTIGPVLTVTTEAMIEHMNNLLKIRGSKVLFGGEPLANHSIPKIYGAMKPTAVFVPLEEILKSGNFELVTKEIFGPFQVVTEYSEDQLELVLEACERMNAHLTAAIVSNDPLFLQDVLGRSVNGTTYAGIRARTTGAPQNHWFGPAGDPRGAGIGTPEAIKLVWSCHREIIYDVGPVPESWALPSAT
Km [4]: 173 ± 12 µM
kcat [4]: 0.04 ± 0.02 s⁻¹
kcat/Km [4]: 200 ± 20 M⁻¹ s⁻¹
Km [5]: 1860 ± 99 µM
kcat [5]: 0.4 ± 0.1 s⁻¹
kcat/Km [5]: 210 ± 20 M⁻¹ s⁻¹

B2: ZmALDH12 (Zea mays; K329A) (protein)
chain: APFACVSRWLHTPSFATVSPQEVSGSSPAEVQNFVQGSWTASANWNWIVDPLNGDKFIKVAEVQGTEIKSFMESLSKCPKHGLHNPLKAPERYLMYGDISAKAAHMLGQPTVLDFFAKLIQRVSPKSYQQALAEVQVSQKFLENFCGDQVRFLARSFAVPGNHLGQRSNGYRWPYGPVAIITPFNFPLEIPLLQLMGALYMGNKPVLKVDSKVSIVMEQMIRLLHDCGLPAEDMDFINSDGAVMNKLLLEANPKMTLFTGSSRVAEKLAADLKGRVKLEDAGFDWKILGPDVQEVDYVAWVCDQDAYACSGQACSAQSVLFMHKNWSSSGLLEKMKKLSERRKLEDLTIGPVLTVTTEAMIEHMNNLLKIRGSKVLFGGEPLANHSIPKIYGAMKPTAVFVPLEEILKSGNFELVTKEIFGPFQVVTEYSEDQLELVLEACERMNAHLTAAIVSNDPLFLQDVLGRSVNGTTYAGIRARTTGAPQNHWFGPAGDPRGAGIGTPEAIKLVWSCHREIIYDVGPVPESWALPSAT
Km [6]: 958 ± 47 µM
kcat [6]: 0.26 ± 0.01 s⁻¹

B3: PpALDH12 (Physcomitrium patens) (protein)
chain: SSTLLSDHRPQSSLSFASCDADKLSEAHQYQMHNLVQGKWEQTSKSIELLDPLNGEKFISVPDTSIDEISPFVQSLRACSKSGLHNPLKNPERYLLYGDIMAKAAHLLKQPQVETFFARLIQRVAPKSFAQAVGEVTVTQKFLENFSGDQVRFLARSFVVPGNYQGQQSNGMRWPYGPVAIITPFNFPLEIPALQALGALFMGNKPILKVDSKVSIVMEQFIRLLHKCGMPPTDMDFINSDGPVMNKLLLEAEPKTTLFTGSSKVAEKLALDLKGRVKLEDAGFDWKILGPDVQNEDYVAWVCDQDAYACSGQKCSAQSILFMHENWANQNFLERLKKLASKRKLEDLTVGPVLTVTTERMLDHVKNLLAIPGARVEFGGKPLTNHTIPDVYGALEPTAVFVPLKEILRNEENFALATTEIFGPFQILTEYKHEDLPLVFEACERMHAHLTAAVVSNDVHFLQEVLSNTVNGTTYAGIRARTTGAPQNHWFGPAGDPRGAGIGTPEAIKLVWSCHREIIQDVGPIPNGWSTPQCT
Km [7]: 228 ± 40 µM
kcat [7]: 0.44 ± 0.05 s⁻¹
kcat/Km [7]: 1900 ± 600 M⁻¹ s⁻¹
Km [8]: 211 ± 13 µM
kcat [8]: 0.005 ± 0.001 s⁻¹
kcat/Km [8]: 26 ± 2 M⁻¹ s⁻¹
Km [9]: 82 ± 6 µM
kcat [9]: 0.3 ± 0.02 s⁻¹
kcat/Km [9]: 3700 ± 600 M⁻¹ s⁻¹

Second part, the molecule after the results:

Kd [1]: 186 ± 25 µM
Molecule: NC(=O)c1ccc[n+]([C@@H]2O[C@H](COP(=O)(O)OP(=O)(O)OC[C@H]3O[C@@H](n4cnc5c(N)ncnc54)[C@H](O)[C@@H]3O)[C@@H](O)[C@H]2O)c1 [NAD^+]

Kd [1]: 166 ± 14 µM
Kd [2]: 315 ± 48 µM
Molecule: NC(CCC=O)C(=O)O (racemic) [GSAL]

Kd [1]: 34 ± 11 µM
Molecule: O=CCCCC(=O)O [GRSAL]

Kd [3]: 3100 ± 300 µM
Molecule: N[C@@H](CCC(=O)O)C(=O)O [glutamate]
